Target: PAK I of frog (Lepidobatrachus laevis) oocytes, zygotes and embryos (frog (Lepidobatrachus laevis))
Experiment: cell-based or functional assay

degree of activation of inactive PAK I in DEAE-cellulose fractions (H4 phosphorylation): 6 to 7 fold
Substance: GST-Cdc42Hs preloaded with GTPγS (from UniProt P60953 1-191)

Reference: patent publication US20020086390A1
